System: Escherichia coli TOP10
Test: shrunken log2 fold change of peptide-encoding DNA abundance (4.5 h post-induction vs induction); higher = less antimicrobial activity (less host growth inhibition)
Conditions: time post-induction: 4.5 h; library: site-saturation at positions 5, 18, 19, 20
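Note: peptides expressed intracellularly from a pBAD plasmid library in pooled LB shake-flask culture, induced with 0.3% L-arabinose, DNA abundance read by NGS, three biological replicates, DESeq2 with apeglm shrinkage.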

RRIRCRPPRLPRPRPRPEPKPRP
shrunken log2 fold change: 0.104

RRIRRRPPRLPRPRPRPMMLPRP
shrunken log2 fold change: -0.142

RRIRPRPPRLPRPRPRPEFGPRP
shrunken log2 fold change: 0.327

RRIRYRPPRLPRPRPRPNRSPRP
shrunken log2 fold change: -0.496

RRIRSRPPRLPRPRPRPYVVPRP
shrunken log2 fold change: -0.314

RRIRARPPRLPRPRPRPPPMPRP
shrunken log2 fold change: 1.1

RRIRARPPRLPRPRPRPCRDPRP
shrunken log2 fold change: -0.0411

RRIRARPPRLPRPRPRPKFIPRP
shrunken log2 fold change: -0.135

RRIRMRPPRLPRPRPRPMKDPRP
shrunken log2 fold change: 0.251

RRIRFRPPRLPRPRPRPINNPRP
shrunken log2 fold change: -0.683

RRIRYRPPRLPRPRPRPQQRPRP
shrunken log2 fold change: -0.261

RRIRMRPPRLPRPRPRPQKIPRP
shrunken log2 fold change: 0.255

RRIRWRPPRLPRPRPRPDSKPRP
shrunken log2 fold change: -0.133

RRIRSRPPRLPRPRPRPRSRPRP
shrunken log2 fold change: 0.0341

RRIRTRPPRLPRPRPRPDYNPRP
shrunken log2 fold change: -0.0768

RRIRFRPPRLPRPRPRPFLLPRP
shrunken log2 fold change: -0.696

RRIRTRPPRLPRPRPRPIKEPRP
shrunken log2 fold change: -0.253

RRIRARPPRLPRPRPRPPYEPRP
shrunken log2 fold change: 0.194

RRIRLRPPRLPRPRPRPYHMPRP
shrunken log2 fold change: -0.146

RRIRFRPPRLPRPRPRPLLPPRP
shrunken log2 fold change: -0.142

RRIRLRPPRLPRPRPRPIGPPRP
shrunken log2 fold change: 0.0835

RRIRIRPPRLPRPRPRPEVRPRP
shrunken log2 fold change: -0.0584

RRIRYRPPRLPRPRPRPDPSPRP
shrunken log2 fold change: -0.566

RRIRGRPPRLPRPRPRPYDTPRP
shrunken log2 fold change: -0.0956

RRIRARPPRLPRPRPRPSVVPRP
shrunken log2 fold change: -0.0244

RRIRKRPPRLPRPRPRPTHQPRP
shrunken log2 fold change: 0.612

RRIRSRPPRLPRPRPRPHKLPRP
shrunken log2 fold change: -0.228

RRIRFRPPRLPRPRPRPHKEPRP
shrunken log2 fold change: -0.203

RRIRWRPPRLPRPRPRPPGKPRP
shrunken log2 fold change: 0.214

RRIRMRPPRLPRPRPRPPGPPRP
shrunken log2 fold change: 1.41

RRIRARPPRLPRPRPRPWPFPRP
shrunken log2 fold change: -0.0236

RRIRWRPPRLPRPRPRPLQMPRP
shrunken log2 fold change: 0.161

RRIRGRPPRLPRPRPRPLEHPRP
shrunken log2 fold change: 0.594

RRIRVRPPRLPRPRPRPIYVPRP
shrunken log2 fold change: -0.0279

RRIRFRPPRLPRPRPRPGKGPRP
shrunken log2 fold change: -0.159

RRIRTRPPRLPRPRPRPVKNPRP
shrunken log2 fold change: -0.284

RRIRRRPPRLPRPRPRPQLSPRP
shrunken log2 fold change: 0.976

RRIRGRPPRLPRPRPRPKWPPRP
shrunken log2 fold change: 0.322

RRIRARPPRLPRPRPRPSGDPRP
shrunken log2 fold change: 0.15

RRIRDRPPRLPRPRPRPISIPRP
shrunken log2 fold change: 0.0218

RRIRYRPPRLPRPRPRPDVLPRP
shrunken log2 fold change: 0.0494

RRIRGRPPRLPRPRPRPMRTPRP
shrunken log2 fold change: 2

RRIRGRPPRLPRPRPRPKQVPRP
shrunken log2 fold change: 0.541

RRIRGRPPRLPRPRPRPTEGPRP
shrunken log2 fold change: 0.795

RRIRDRPPRLPRPRPRPYEPPRP
shrunken log2 fold change: -0.017

RRIRQRPPRLPRPRPRPLCQPRP
shrunken log2 fold change: -0.304

RRIRARPPRLPRPRPRPSFMPRP
shrunken log2 fold change: 0.0496

RRIRQRPPRLPRPRPRPNHEPRP
shrunken log2 fold change: -0.102

RRIRRRPPRLPRPRPRPEPSPRP
shrunken log2 fold change: 0.228

RRIRPRPPRLPRPRPRPWLWPRP
shrunken log2 fold change: 0.0404

RRIRDRPPRLPRPRPRPFDNPRP
shrunken log2 fold change: 0.0553

RRIRYRPPRLPRPRPRPFSWPRP
shrunken log2 fold change: -0.235

RRIRWRPPRLPRPRPRPHNAPRP
shrunken log2 fold change: -0.0847

RRIRQRPPRLPRPRPRPYRYPRP
shrunken log2 fold change: -0.0123

RRIRTRPPRLPRPRPRPPDMPRP
shrunken log2 fold change: -0.142

RRIRKRPPRLPRPRPRPIYWPRP
shrunken log2 fold change: 0.165

RRIRLRPPRLPRPRPRPKTFPRP
shrunken log2 fold change: -0.201

RRIRKRPPRLPRPRPRPRWEPRP
shrunken log2 fold change: 0.0207

RRIRLRPPRLPRPRPRPNCPPRP
shrunken log2 fold change: -0.213

RRIRIRPPRLPRPRPRPQQGPRP
shrunken log2 fold change: -0.295

RRIRIRPPRLPRPRPRPNDSPRP
shrunken log2 fold change: -0.137

RRIRVRPPRLPRPRPRPYDWPRP
shrunken log2 fold change: -0.206

RRIRERPPRLPRPRPRPDVHPRP
shrunken log2 fold change: -0.435

RRIRERPPRLPRPRPRPQFIPRP
shrunken log2 fold change: -0.014

RRIRTRPPRLPRPRPRPLSPPRP
shrunken log2 fold change: 0.0169

RRIRDRPPRLPRPRPRPCCSPRP
shrunken log2 fold change: 0.166

RRIRGRPPRLPRPRPRPPIPPRP
shrunken log2 fold change: 0.449

RRIRMRPPRLPRPRPRPCPLPRP
shrunken log2 fold change: -0.0594

RRIRCRPPRLPRPRPRPYLDPRP
shrunken log2 fold change: -0.575

RRIRFRPPRLPRPRPRPQCYPRP
shrunken log2 fold change: 0.04

RRIRIRPPRLPRPRPRPTEAPRP
shrunken log2 fold change: -0.153

RRIRFRPPRLPRPRPRPGIGPRP
shrunken log2 fold change: -0.0363

RRIRTRPPRLPRPRPRPLWKPRP
shrunken log2 fold change: -0.178

RRIRKRPPRLPRPRPRPINNPRP
shrunken log2 fold change: -0.298

RRIRLRPPRLPRPRPRPTHGPRP
shrunken log2 fold change: 0.213

RRIRMRPPRLPRPRPRPMVPPRP
shrunken log2 fold change: -0.0114

RRIRHRPPRLPRPRPRPRMSPRP
shrunken log2 fold change: -0.0693

RRIRKRPPRLPRPRPRPMSRPRP
shrunken log2 fold change: 0.0843

RRIRIRPPRLPRPRPRPYGYPRP
shrunken log2 fold change: -0.0764

RRIRSRPPRLPRPRPRPGHVPRP
shrunken log2 fold change: 0.1

RRIRSRPPRLPRPRPRPQEHPRP
shrunken log2 fold change: -0.112

RRIRCRPPRLPRPRPRPEDEPRP
shrunken log2 fold change: 0.076

RRIRRRPPRLPRPRPRPHTAPRP
shrunken log2 fold change: 0.313

RRIRSRPPRLPRPRPRPWYKPRP
shrunken log2 fold change: -0.137

RRIRARPPRLPRPRPRPREMPRP
shrunken log2 fold change: 0.563

RRIRKRPPRLPRPRPRPYGLPRP
shrunken log2 fold change: 0.0165

RRIRYRPPRLPRPRPRPGMYPRP
shrunken log2 fold change: -1.44

RRIRSRPPRLPRPRPRPADIPRP
shrunken log2 fold change: 0.0495

RRIRSRPPRLPRPRPRPMMAPRP
shrunken log2 fold change: -0.199

RRIRMRPPRLPRPRPRPNQEPRP
shrunken log2 fold change: -0.0314

RRIRQRPPRLPRPRPRPYCFPRP
shrunken log2 fold change: -1

RRIRTRPPRLPRPRPRPHWQPRP
shrunken log2 fold change: -0.0496

RRIRCRPPRLPRPRPRPCVCPRP
shrunken log2 fold change: -0.128

RRIRFRPPRLPRPRPRPYIYPRP
shrunken log2 fold change: -0.0532

RRIRPRPPRLPRPRPRPNTGPRP
shrunken log2 fold change: 0.881

RRIRVRPPRLPRPRPRPRAFPRP
shrunken log2 fold change: 0.294

RRIRQRPPRLPRPRPRPEYNPRP
shrunken log2 fold change: -0.424

RRIRHRPPRLPRPRPRPHSMPRP
shrunken log2 fold change: -0.337

RRIRNRPPRLPRPRPRPFWNPRP
shrunken log2 fold change: -0.151

RRIRTRPPRLPRPRPRPCSSPRP
shrunken log2 fold change: -0.0634

RRIRNRPPRLPRPRPRPIYDPRP
shrunken log2 fold change: -0.4

RRIRGRPPRLPRPRPRPNIWPRP
shrunken log2 fold change: 0.373

RRIRERPPRLPRPRPRPDMRPRP
shrunken log2 fold change: -3.48e-05

RRIRLRPPRLPRPRPRPNKCPRP
shrunken log2 fold change: -0.323

RRIRLRPPRLPRPRPRPHGWPRP
shrunken log2 fold change: 0.0568

RRIRFRPPRLPRPRPRPDTYPRP
shrunken log2 fold change: -0.221

RRIRPRPPRLPRPRPRPRCWPRP
shrunken log2 fold change: 0.689

RRIRWRPPRLPRPRPRPYNEPRP
shrunken log2 fold change: -0.13

RRIRMRPPRLPRPRPRPSHHPRP
shrunken log2 fold change: -0.171

RRIRKRPPRLPRPRPRPKSHPRP
shrunken log2 fold change: 0.0104

RRIRKRPPRLPRPRPRPFNLPRP
shrunken log2 fold change: -0.0494

RRIRYRPPRLPRPRPRPYVYPRP
shrunken log2 fold change: -0.26

RRIRKRPPRLPRPRPRPQFDPRP
shrunken log2 fold change: -0.0088

RRIRGRPPRLPRPRPRPTRYPRP
shrunken log2 fold change: 0.357

RRIRKRPPRLPRPRPRPGFNPRP
shrunken log2 fold change: 0.0583

RRIRHRPPRLPRPRPRPNVMPRP
shrunken log2 fold change: 0.0213

RRIRDRPPRLPRPRPRPCMEPRP
shrunken log2 fold change: -0.0179

RRIRWRPPRLPRPRPRPSLNPRP
shrunken log2 fold change: -0.0829

RRIRTRPPRLPRPRPRPMWNPRP
shrunken log2 fold change: -0.418

RRIRNRPPRLPRPRPRPKDAPRP
shrunken log2 fold change: 0.0655

RRIRTRPPRLPRPRPRPGEKPRP
shrunken log2 fold change: -0.0135

RRIRYRPPRLPRPRPRPRWCPRP
shrunken log2 fold change: 0.246

RRIRERPPRLPRPRPRPNDIPRP
shrunken log2 fold change: 0.0203

RRIRGRPPRLPRPRPRPLNEPRP
shrunken log2 fold change: 0.57

RRIRSRPPRLPRPRPRPTLNPRP
shrunken log2 fold change: -0.0269

From the supplement of paper PMC9112550, “Optimization of the antimicrobial peptide Bac7 by deep mutational scanning” (BMC Biology, 2022)
